# Laboratory results published in US10844127.
# How the values were obtained:
# HER3 ECD R426A (human) = HER3 ECD R426A (human) (UniProt P21860); experiment: FACS, HER3 ECD alanine mutants on cells
# HER3 ECD F409A (human) = HER3 ECD F409A (human) (UniProt P21860); experiment: FACS, HER3 ECD alanine mutants on cells
# Chain of HER3 ECD F409A (human) (P21860 20-643 F409A): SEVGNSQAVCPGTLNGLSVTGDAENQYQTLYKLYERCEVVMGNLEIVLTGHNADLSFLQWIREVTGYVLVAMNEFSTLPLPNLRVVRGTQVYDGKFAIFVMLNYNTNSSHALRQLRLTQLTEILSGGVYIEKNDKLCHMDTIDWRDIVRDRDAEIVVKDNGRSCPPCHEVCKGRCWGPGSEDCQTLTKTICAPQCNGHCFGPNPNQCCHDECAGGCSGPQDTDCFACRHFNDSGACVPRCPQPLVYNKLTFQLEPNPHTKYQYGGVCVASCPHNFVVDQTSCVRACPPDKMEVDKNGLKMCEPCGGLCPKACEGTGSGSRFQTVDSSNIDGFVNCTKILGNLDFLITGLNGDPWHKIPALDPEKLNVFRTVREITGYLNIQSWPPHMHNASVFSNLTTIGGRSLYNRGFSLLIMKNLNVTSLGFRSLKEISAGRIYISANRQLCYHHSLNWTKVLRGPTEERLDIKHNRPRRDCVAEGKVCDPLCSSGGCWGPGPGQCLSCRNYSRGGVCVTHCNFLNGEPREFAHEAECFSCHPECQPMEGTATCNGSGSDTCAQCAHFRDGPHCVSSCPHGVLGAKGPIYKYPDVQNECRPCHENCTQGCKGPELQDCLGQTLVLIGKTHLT
# Chain of HER3 ECD R426A (human) (P21860 20-643 R426A): as the sequence (P21860 20-643 F409A) above, with A390F, R407A counted along it
substance,measurement,setting,value
control mAb 66223 (antibody),Control mAb binding % of wt binding (% of wt binding),HER3 ECD R426A (human),93.1
same,Control mAb binding % of wt binding (% of wt binding),HER3 ECD F409A (human),79.6
